*1 amine or outer side, *2 acyl side, *3 side chain or, on linkers, in order; H or OH if unused. Primed or numbered codes have the meaning given here. Where no end group is shown, it is not given here. Side-chain parts run from the residue outwards. [ ]: non-standard residue; d: D form. The star is where a group is joined. PEG4′ = 4 PEG units (K(PEGxpalm): Lys with x PEG units and palmitoyl at epsilon N, C-terminal (PEG)4); γGlu = O=C(O)[C@H](CCC(=O)[*:2])N[*:1]; Palmitoyl = CCCCCCCCCCCCCCCC(=O)*; Aib = CC(C)(N)C(=O)O; PEG2′ = 2 PEG units

One experiment has as its target human GLP-1 receptor (GLP-1R) (human, UniProt P43220 24-463). The experiment can be described thus: cell-based or functional assay.
HGQGTFTSDYSKYLDSXRAQDFVQWLV (K(gE-palm) at 17; C-terminal PEG3) [g690]: the “cAMP activity, GLP1 EC50 nM” value worked out at 0.06 nM.

As to HGQGTFTSDYSEYLDSK([γGlu-Palmitoyl])RARDFVEWLV[PEG4′] [g677], the “cAMP activity, GLP1 EC50 nM” value was determined as 0.3 nM.

HSQGTFTSDYSKYLDEK([γGlu-Palmitoyl])RAQDFVQWLV[PEG4′] [g810]: the “cAMP activity, GLP1 EC50 nM” value turned out to be 0.5 nM.

Consider HSQGTFTSDYSKYLDSXRAQDFVQWLV (not fully specified; K(PEG4-palm) at 17; C-terminal PEG2) [g437], for which the “cAMP activity, GLP1 EC50 nM” value is 0.006 nM.

With H[Aib]QGTFTSDYSKYLDSK([γGlu-Palmitoyl])RAQDFVAWLV[PEG4′] [g870], the “cAMP activity, GLP1 EC50 nM” value came to 0.09 nM.

HSQGTFTSDYSKYLDSXRAQDFVQWLV (not fully specified; K(PEG2-palm) at 17; C-terminal PEG4) [g435]: the “cAMP activity, GLP1 EC50 nM” value turned out to be 0.01 nM.

On to HSQGTFTSDYSKYLDSRKRAQDFVQWLV[PEG4′] (not fully specified (residue 18); printed as HSQGTFTSDYSKYLDSRB1RAQDFVQWLVZ4) [g415], for which the “cAMP activity, GLP1 EC50 nM” value amounted to 0.007 nM.

For the molecule HSQGTFTSDYSKYLDK([γGlu-Palmitoyl])RRAQDFVQWEV[PEG4′] [g496], the “cAMP activity, GLP1 EC50 nM” value was determined as 8 nM.

Take HSQGTFTSDYSKYLDSXRAQDFVQWLV (K(PEG3-palm) at 17; C-terminal PEG4) [g434]: the “cAMP activity, GLP1 EC50 nM” value worked out at 0.005 nM.

Turning to HGQGTFTSDYSKYLESK([PEG4′-Palmitoyl])RAQDFVQWLV[PEG4′] [g499], the “cAMP activity, GLP1 EC50 nM” value stood at 0.02 nM.

Turning to HSQGTFTSDYSXYLDSRRAQDFVQWLV (K(gE-palm) at 12; C-terminal PEG4) [g416], the “cAMP activity, GLP1 EC50 nM” value worked out at 1 nM.

As to HGQGTFTSDYSKYLDSXRAQDFVQWLV (K(gE-palm) at 17; C-terminal PEG6) [g692], the “cAMP activity, GLP1 EC50 nM” value was found to be 0.06 nM.

As for HXQGTFTSDYSKYLDSXRAQDFVQWLV (alpha-amino-iso-butyric acid (Aib) at 2; K(gE-palm) at 17; C-terminal PEG4) [g500], the “cAMP activity, GLP1 EC50 nM” value was found to be 0.08 nM.

Consider HSQGTFTSDYSKYLDSRRAQXFVQWLV (K(gE-palm) at 21; C-terminal PEG4) [g808], for which the “cAMP activity, GLP1 EC50 nM” value was determined as 50 nM.

For HSEGTFTSDYSKYLDSK([γGlu-Palmitoyl])RAQDFVQWLV[PEG4′] [g432], the “cAMP activity, GLP1 EC50 nM” value turned out to be 0.07 nM.

As for HSEGTFTSDYSKYLDSKRAQDFVQWLV[PEG4′] (not fully specified (residue 17); printed as HSEGTFTSDYSKYLDSB1RAQDFVQWLVZ4) [g433], the “cAMP activity, GLP1 EC50 nM” value is 0.004 nM.

In the case of HSQGTFTSDYSKYLDSXRAQDFVQWLV (not fully specified; K(PEG4-palm) at 17; C-terminal PEG3) [g436], the “cAMP activity, GLP1 EC50 nM” value stood at 0.01 nM.

On to HSQGTFTSDYSKYLDSXRAQDFVQWLV (K(gE-palm) at 17; C-terminal PEG4) [g414], for which the “cAMP activity, GLP1 EC50 nM” value is 0.2 nM.

In the case of HSQGTFTSDYSKYLDSRRAQDFVQWLV (C-terminal PEG4) [g356], the “cAMP activity, GLP1 EC50 nM” value was found to be 0.05 nM.

For the molecule HGQGTFTSDYSKYLDSXRAQDFVQWLV (K(gE-palm) at 17; C-terminal PEG2) [g691], the “cAMP activity, GLP1 EC50 nM” value was 0.05 nM.

Turning to HSQGTFTSDYSKYLDSXRAQDFVQWLV (not fully specified; K(PEG4-palm) at 17; C-terminal PEG6) [g438], the “cAMP activity, GLP1 EC50 nM” value is 0.005 nM.

Take HGQGTFTSDYSKYLDSXRAQDFVQWLV (not fully specified; K(PEG4-palm) at 17; C-terminal PEG4) [g431]: the “cAMP activity, GLP1 EC50 nM” value came to 0.006 nM.

As to HSQGTFTSDYSEYLDSK([γGlu-Palmitoyl])RARDFVAWLV[PEG4′] [g784], the “cAMP activity, GLP1 EC50 nM” value was 0.3 nM.

HGQGTFTSDYSRYLDSK([γGlu-Palmitoyl])RARDFVEWLV[PEG4′] [g719]: the “cAMP activity, GLP1 EC50 nM” value worked out at 0.09 nM.

Regarding HSQGTFTSDYSKYLDSK([γGlu-Palmitoyl])RARDFVAWLV[PEG4′] [g800], the “cAMP activity, GLP1 EC50 nM” value is 0.09 nM.

With HXQGTFTSDYSKYLDSXRAQDFVQWLV (alpha-amino-iso-butyric acid (Aib) at 2; K(PEG4-palm) at 17; C-terminal PEG4) [g501], the “cAMP activity, GLP1 EC50 nM” value amounted to 0.03 nM.

In another experiment the target is human glucagon receptor (GCGR) (human, UniProt P47871 26-477). The experiment can be described thus: cell-based or functional assay.
human glucagon receptor (GCGR), sequence (P47871 26-477): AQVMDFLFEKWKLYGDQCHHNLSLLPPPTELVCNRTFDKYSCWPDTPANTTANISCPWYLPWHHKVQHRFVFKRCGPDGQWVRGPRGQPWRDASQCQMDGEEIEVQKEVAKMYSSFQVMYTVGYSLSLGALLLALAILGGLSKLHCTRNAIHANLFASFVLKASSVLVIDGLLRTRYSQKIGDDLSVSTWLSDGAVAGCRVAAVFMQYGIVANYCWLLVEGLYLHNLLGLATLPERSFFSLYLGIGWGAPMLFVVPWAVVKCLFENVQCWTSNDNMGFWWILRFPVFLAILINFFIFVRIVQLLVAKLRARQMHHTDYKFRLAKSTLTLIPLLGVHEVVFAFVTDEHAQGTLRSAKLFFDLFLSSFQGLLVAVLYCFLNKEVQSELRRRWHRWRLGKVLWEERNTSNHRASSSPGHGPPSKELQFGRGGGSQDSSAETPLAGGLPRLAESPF
For HGQGTFTSDYSKYLDSXRAQDFVQWLV (K(gE-palm) at 17; C-terminal PEG3) [g690], the “cAMP activity, Glcg EC50 nM” value worked out at 0.1 nM.

As to HSQGTFTSDYSKYLDSRKAQDFVQWLE[PEG4′] (not fully specified (residue 18); printed as HSQGTFTSDYSKYLDSRB1AQDFVQWLEZ4) [g455], the “cAMP activity, Glcg EC50 nM” value was determined as 0.001 nM.

Regarding HSQGTFTSDYSKYLDEK([γGlu-Palmitoyl])RAQDFVQWLV[PEG4′] [g810], the “cAMP activity, Glcg EC50 nM” value is 0.03 nM.

With HSQGTFTSDYSKYLDSXRAQDFVQWLV (not fully specified; K(PEG4-palm) at 17; C-terminal PEG2) [g437], the “cAMP activity, Glcg EC50 nM” value amounted to 0.002 nM.

For the molecule HSQGTFTSDYSKYLDSXRAQDFVQWLV (not fully specified; K(PEG2-palm) at 17; C-terminal PEG4) [g435], the “cAMP activity, Glcg EC50 nM” value is 0.002 nM.

On to HSQGTFTSDYSKYLDSRKRAQDFVQWLV[PEG4′] (not fully specified (residue 18); printed as HSQGTFTSDYSKYLDSRB1RAQDFVQWLVZ4) [g415], for which the “cAMP activity, Glcg EC50 nM” value stood at 0.002 nM.

Take H[Aib]QGTFTSDYSKYK([γGlu-Palmitoyl])DSERARDFVAWLV[PEG4′] [g868]: the “cAMP activity, Glcg EC50 nM” value is 0.02 nM.

On to HSQGTFTSDYSKYLDSXRAQDFVQWLV (K(PEG3-palm) at 17; C-terminal PEG4) [g434], for which the “cAMP activity, Glcg EC50 nM” value worked out at 0.02 nM.

Take HSQGTFTSDK([PEG4′-Palmitoyl])SKYLDSSRARDFVAWLV[PEG4′] [g971]: the “cAMP activity, Glcg EC50 nM” value came out at 0.007 nM.

Turning to HGQGTFTSDYSKYLESK([PEG4′-Palmitoyl])RAQDFVQWLV[PEG4′] [g499], the “cAMP activity, Glcg EC50 nM” value was 0.03 nM.

As to HSQGTFTSDYSXYLDSRRAQDFVQWLV (K(gE-palm) at 12; C-terminal PEG4) [g416], the “cAMP activity, Glcg EC50 nM” value is 0.6 nM.

Consider H[Aib]QGTFTSDYSKYLDSK([PEG4′-γGlu-Palmitoyl])RARDFVAWLV[PEG4′] [g968], for which the “cAMP activity, Glcg EC50 nM” value amounted to 0.006 nM.

Take HSQGTFTSDYSKYLDSK([PEG4′-Palmitoyl])RAQDFVQWEV[PEG4′] [g459]: the “cAMP activity, Glcg EC50 nM” value stood at 0.3 nM.

Take HSQGTFTSDYSKYLDSXRAQDFVQWLE (not fully specified; K(PEG2-PEG2-gE-palm) at 17; C-terminal PEG4) [g966]: the “cAMP activity, Glcg EC50 nM” value stood at 0.001 nM.

On to HSQGTFTSDYSKYLDSXRAQDFVQWLV (not fully specified; K(PEG4-gE-palm) at 17; C-terminal PEG4) [g964], for which the “cAMP activity, Glcg EC50 nM” value turned out to be 0.002 nM.

Turning to HSQGTFTSDYSKYLDSRAAQK([γGlu-Palmitoyl])FVQWLV[PEG4′] [g809], the “cAMP activity, Glcg EC50 nM” value worked out at 0.07 nM.

On to HSEGTFTSDYSKYLDSKRAQDFVQWLV[PEG4′] (not fully specified (residue 17); printed as HSEGTFTSDYSKYLDSB1RAQDFVQWLVZ4) [g433], for which the “cAMP activity, Glcg EC50 nM” value is 0.03 nM.

For HSQGTFTSDYSKYLDSXRAQDFVQWLV (not fully specified; K(PEG4-palm) at 17; C-terminal PEG3) [g436], the “cAMP activity, Glcg EC50 nM” value was found to be 0.002 nM.

Consider HSQGTFTSDYSKYLDSXRAQDFVQWLV (not fully specified; K(PEG2-gE-palm) at 17; C-terminal PEG4) [g965], for which the “cAMP activity, Glcg EC50 nM” value was found to be 0.002 nM.

For the molecule HSQGTFTSDYSKYK([γGlu-Palmitoyl])DSRRAQDFVQWLV[PEG4′] [g426], the “cAMP activity, Glcg EC50 nM” value stood at 0.003 nM.

In the case of HSQGTFTSDYSKYK([γGlu-Palmitoyl])DEERAQDFVQWLV[PEG4′] [g807], the “cAMP activity, Glcg EC50 nM” value amounted to 0.01 nM.

As to HGQGTFTSDYSKYLDSXRAQDFVQWLV (K(gE-palm) at 17; C-terminal PEG4) [g430], the “cAMP activity, Glcg EC50 nM” value stood at 0.8 nM.

In the case of HSQGTFTSDYSKYLDSRRAQDFVQWLV (C-terminal PEG2) [g355], the “cAMP activity, Glcg EC50 nM” value came out at 0.03 nM.

For HSQGTFTSDYSKK([PEG4′-Palmitoyl])LDSSRARDFVAWLV[PEG4′] [g970], the “cAMP activity, Glcg EC50 nM” value amounted to 0.003 nM.

As to HSQGTFTSDYSKYLDSXRAQDFVQWLV (not fully specified; K(PEG4-palm) at 17; C-terminal PEG6) [g438], the “cAMP activity, Glcg EC50 nM” value stood at 0.002 nM.

On to HSQGTFTSDYSEYLDSK([γGlu-Palmitoyl])RAQDFVQWLV[PEG4′] [g676], for which the “cAMP activity, Glcg EC50 nM” value amounted to 40 nM.

As for HSQGTFTSDYSKYLDSK([PEG4′-γGlu-Palmitoyl])RARDFVAWLE[PEG2′] [g967], the “cAMP activity, Glcg EC50 nM” value is 0.006 nM.

Take HGQGTFTSDYSKYLDSXRAQDFVQWLV (not fully specified; K(PEG4-palm) at 17; C-terminal PEG4) [g431]: the “cAMP activity, Glcg EC50 nM” value worked out at 0.004 nM.

Regarding HSQGTFTSDYSKYLDK([PEG4′-Palmitoyl])RRAQDFVQWEV[PEG4′] [g497], the “cAMP activity, Glcg EC50 nM” value amounted to 0.3 nM.

In the case of HSQGTFTSDYSEYLDSK([γGlu-Palmitoyl])RAADFVQWLV[PEG4′] (not fully specified; printed as HSQGTFTSDYSEYLDSBRAADFVQWLVZ4) [g775], the “cAMP activity, Glcg EC50 nM” value stood at 0.08 nM.

Take HXQGTFTSDYSKYLDSXRAQDFVQWLV (alpha-amino-iso-butyric acid (Aib) at 2; K(PEG4-palm) at 17; C-terminal PEG4) [g501]: the “cAMP activity, Glcg EC50 nM” value came out at 0.003 nM.

HSQGTFTSDYSKYLDSK([γGlu-Palmitoyl])RAQDFVQWEV[PEG4′] [g458]: the “cAMP activity, Glcg EC50 nM” value was 9 nM.

For the molecule HSQGTFTSDYSKYLDSRRAXDFVQWLV (K(gE-palm) at 20; C-terminal PEG4) [g456], the “cAMP activity, Glcg EC50 nM” value was 0.07 nM.

These data come from patent US20160017016A1 (AstraZeneca / MedImmune, published 2016).
